Square brackets hold non-standard residues; d marks the D form. Ends that are not written are not given here. pGlu = O=C1CC[C@@H](C(=O)O)N1

In experiment [1] the test system is aged rats and AD model rats. As to the method:
The arginine vasopressin (AVP) concentration and AQP4 concentration in the brain are assayed with aged rats and AD model rats. Between placebo groups and intranasal AVP spray groups, the expression amount of AQP4 is assessed and simultaneously amyloid 3 (AB) proteins (and/or tau proteins) are assayed. The assays of AQP4 and AB are carried out with an immunofluorescent-antibody assay. The measured concentration of each of AB (and/or tau) is compared (throughout all the brain and each site) at each time point, i.e., prior to administration, at one week after administration, at one month after administration, and at three months after administration.
In this assay, the comparisons are carried out between the above groups and intravascularly AVP received groups.

The target of another experiment is V1aR receptor (V1aR) (Homo sapiens, UniProt P37288). As to the kind of experiment: V1aR agonist activity of AVP fragments compared with AVP. Conditions: no method or data given.
Sequence of V1aR receptor (V1aR) (P37288 whole entry, species assumed, the tested form may be a part): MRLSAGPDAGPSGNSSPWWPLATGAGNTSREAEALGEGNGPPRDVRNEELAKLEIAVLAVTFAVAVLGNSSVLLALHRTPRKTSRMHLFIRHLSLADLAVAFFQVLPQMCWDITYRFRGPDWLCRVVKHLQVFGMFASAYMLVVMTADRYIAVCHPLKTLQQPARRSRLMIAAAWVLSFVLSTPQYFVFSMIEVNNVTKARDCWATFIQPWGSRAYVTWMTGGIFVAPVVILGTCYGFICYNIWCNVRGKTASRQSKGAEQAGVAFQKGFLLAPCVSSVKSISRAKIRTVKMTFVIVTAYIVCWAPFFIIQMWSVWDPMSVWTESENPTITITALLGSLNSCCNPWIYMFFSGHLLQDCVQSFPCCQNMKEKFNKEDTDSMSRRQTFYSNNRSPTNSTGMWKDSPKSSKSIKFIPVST

Consider 8-arginine-vasopressin [AVP], for which, in experiment [1] (aged rats and AD model rats, intranasal AVP spray vs placebo, immunofluorescent-antibody assay), the “correlation between the concentration of AVP in the brain and the expression amount of AQP4” value is reported as “There is a correlation”. For the same substance, the “correlation of brain AVP concentration and AQP4 expression with the amount of AB reduction” value in experiment [1] (aged rats and AD model rats, prior to, one week, one month and three months after administration) was “correlate with the amount of AB reduction”. Also, the “effectiveness of intranasal AVP administration” value in experiment [1] (compared with placebo groups and intravascularly AVP received groups) is listed as “effective”. Turning to “AVP (4-8): AVP fragment (QNCPR; Arg-vasopressin; UniProt P01185 23-27, looked up, fragment)”, the “V1aR agonist activity relative to original AVP” value with V1aR receptor (V1aR) is “several-fold superior to original AVP”. Consider “AVP (4-9): AVP fragment (QNCPRG; ends and bridges not checked; UniProt P01185 23-28, looked up, fragment)”, for which, in the experiment with V1aR receptor (V1aR), the “V1aR agonist activity relative to original AVP” value was “several-fold superior to original AVP”. Still for that read-out and setting: the entry for “AVP (5-8): AVP fragment (NCPR; Arg-vasopressin; UniProt P01185 24-27, looked up, fragment)” is “several-fold superior to original AVP”; for “AVP (5-9): AVP fragment (NCPRG; ends and bridges not checked; UniProt P01185 24-28, looked up, fragment)” it is “several-fold superior to original AVP”. Take “pGlu-Asn-Ser-Pro-Arg-Gly-NH2 acetate ([pGlu]NSPRG-NH2; also: acetate salt) [NC1900, AVP fragment]”: the “V1aR agonist activity relative to original AVP” value with V1aR receptor (V1aR) is given as “several-fold superior to original AVP”.

(Values after patent US20240316143A1, “THERAPEUTIC AGENTS AND/OR PHARMACEUTICAL COMPOSITIONS FOR NEUROCOGNITIVE DISORDERS” (priority 2023, published 2024).)
